# Patent EP2105446A2 (ZymoGenetics, Inc., dated 2009)
# B1: zalpha11CFLG soluble receptor (zalpha11 extracellular domain with C-terminal FLAG tag) (receptor)
# chain: not shown
# B2: zalpha11CEE soluble receptor (zalpha11 extracellular domain with C-terminal Glu-Glu tag) (receptor)
# chain: not shown
# Experiments:
# [1] = target: factor present in the activated CD3+ selected human T-cell conditioned media (human); assay: cell-based or functional assay
# [2] = target: factor present in the activated monkey spleen conditioned media (monkey); assay: cell-based or functional assay
Binder,"inhibition of BaF3/Zalpha11 cell growth (Alamar Blue), concentration giving complete inhibition [1]","titration of soluble receptor, lowest concentration giving complete inhibition of BaF3/Zalpha11 growth [1]","inhibition of BaF3/Zalpha11 cell growth (Alamar Blue), concentration giving complete inhibition [2]","titration of soluble receptor, lowest concentration giving complete inhibition of BaF3/Zalpha11 growth [2]"
B1,10 µg/mL,20 ng/mL,10 µg/mL,20 ng/mL
B2,10 µg/mL,20 ng/mL,10 µg/mL,20 ng/mL
